Source: the DeepSol protein solubility set

Experiment: soluble on expression in E. coli; label from the status in PepcDB or PDB records

Sequence	soluble on expression in E. coli
MISNQILQNTIEGLKGISRIDFCVLDTEGKALATTFEDTWNYESAVLSFVESPADSQVIQGCQFFKIFDEQQLEYVLLAGGESEDVYMLGKIAAFQVQSLLVAYKERFDKDNFIKNLLLDNLLLVDIYNRAKKLHIDTEAKRVIFIIETSHEKDSVALDNVRNLLGGKSRDFVTAVDEKNIIVVKELADKAGSRELEKMAKEMMEILRAESEDDKIHIAYGTVVNDIKEVSKSYKEAKLALDVGKIFFDEKDIVAYSTLGIGRLIYQLPIPLCKMFIKEIFEGKSPDEFDEETLTTINKFFENSLNVSETSRQLYIHRNTLVYRLDKLQKSTGLDLRVFEDAITFKIALMVVKYMKYMETLEY	not soluble
MIRELVTTAAITGAAIGGAPVAGADPQRYDGDVPGMNYDASLGAPCSSWERFIFGRGPSGQAEACHFPPPNQFPPAETGYWVISYPLYGVQQVGAPCPKPQAAAQSPDGLPMLCLGARGWQPGWFTGAGFFPPEP	soluble
MSLQHNELKTPYFMINEDKLIANLEKAKQLKEISGVKLVLALKCFSTWGVFDIIKPYLDGTTSSGPFEVKLGYETFGGETHAYSVGYSEDDVREVADICDKMIFNSQSQLAAYRHIVEGKASIGLRLNPGVSYAGQDLANPARKFSRLGVQADHIKPEVFEGIDGVMFHMNCENKDVDAFIGLLDAISEQFGEYLNKLDWVSMGGGVFFTWPGYDIEKLGLALKAFSEKHGVQMYLEPGEAIITKTTDLVVTVVDIVENVKKTAIVDSATEAHRLDTLIYNEPASILEASDNGEHEYVIGSCSCLAGDQFCVANFDQPLEIGQRLHILDSAGYTMVKLNWFNGLRMPSVYCERSSGEIQKLNEFDYSDFKRSLSEGHHHHHH	not soluble
MASASRLPPLPALRDFIHMYRLRAKKILSQNYLMDMNITRKIAKHAKVIEKDWVIEIGPGPGGITRAILEAGASRLDVVEIDNRFIPPLQHLAEAADSRMFIHHQDALRTEIGDIWKNETARPESVDWHDSNLPAMHVIGNLPFNIASPLIIKYLRDMSYRRGVWQYGRVPLTLTFQLEVAKRLCSPIACDTRSRISIMSQYVAEPKMVFQISGSCFVPRPQVDVGVVRFVPRKTPLVNTSFEVLEKVCRQVFHYRQKYVTKGLKTLYPEELEDELSDDLLKKCRIDPTTTSIRLGIEQFADLAEGYNEQCIRYPGLFLYDYTNKLHNLEDLSKEPNALPPPVPIFAPAPTIDSADNTWSLKNFNCS	not soluble
MKEQILEKLKTVKYPGFEKDIVSFNFVKDIKIQDDGVFIDIEIVSANPEVANEIRKNTIEALSSLALKNIELNIITPKIPEEKSNSRSGKNIAPQVKNFIMVSSGKGGVGKSTTTVNLAISMAKMGKRVGILDADIYGPNIPRMLGETKTQPEVVGQRLKPILTHGVYMMSMGVLIEEGQGLMWRGAMIMKAIEQLLADVIWPELDVLFLDMPPGTGDAQITSAQSIPIAAGVCVSTPQTVSLDDSKRALDMFNKLHIPIAGVIENMSGFLCPDNGKEYDIFGKGTAEDMAKAYKSEVLAQIPIEMIVREGGDEGKPVSFYHPESVSSKRYLMAAEKIWSFIEKINNEGGADNSAIQPVMNGKSACSHLEHHHHHH	soluble
GALKRAEELKTQANDYFKAKDYENAIKFYSQAIELNPSNAIYYGNRSLAYLRTECYGYALGDATRAIELDKKYIKGYYRRAASNMALGKFRAALRDYETVVKVKPHDKDAKMKYQECNKIVKQKAFERAIAGDEHKRSVVDSLDIESMTIEDEYSGPKLEDGKVTISFMKELMQWYKDQKKLHRKCAYQILVQVKEVLSKLSTLVETTLKETEKITVCGDTHGQFYDLLNIFELNGLPSETNPYIFNGDFVDRGSFSVEVILTLFGFKLLYPDHFHLLRGNHETDNMNQIYGFEGEVKAKYTAQMYELFSEVFEWLPLAQCINGKVLIMHGGLFSEDGVTLDDIRKIERNRQPPDSGPMCDLLWSDPQPQNGRSISKRGVSCQFGPDVTKAFLEENNLDYIIRSHEVKAEGYEVAHGGRCVTVFSAPNYCDQMGNKASYIHLQGSDLRPQFHQFTAVPHPNVKPMAYANTLLQLGMM	soluble
MAHHHHHHMASMNHPDELEGSATSGVLCPLTAYEEVPPTKTRSQIIKEQLLDLENYSFEIPDRPEGDPSGKLAYLDMCEQLHKESFMKFPTHSVANSLCEGKESLDVSFFALGKKGSAALAAALRVNLTIRKLSLLRNHITPSGAMEIARALSETKVVSDLDLSENLLGLTDADDIQGGAVVAEFLKPGNVLKTLSLRDNKLSDQHVTEFAEAAIDNTELHSLDLSFNRIGYIGAIELANILSKNADLQEINLEWNQFQTIGSRHILAEGLLLNNTIKRFNMSWNGLDDACGVLVGRIISENDIEEIVVAHNRIGPAGAEAIAKGLLNTSALTTLILDDNPMQNEGCAAILRVVGEAATLTNVSLQQCRCDSSVVLEADRVMKEVRPDLDIRISEGCCAKVVM	not soluble
MAATSGTDEPVSGELVSVAHALSLPAESYGNDPDIEMAWAMRAMQHAEVYYKLISSVDPQFLKLTKVDDQIYSEFRKNFETLRIDVLDPEELKSESAKEKWRPFCLKFNGIVEDFNYGTLLRLDCSQGYTEENTIFAPRIQFFAIEIARNREGYNKAVYISVQDKEGEKGVNNGGEKRADSGEEENTKNGGEKGADSGEEKEEGINREDKTDKGGEKGKEADKEINKSGEKAM	soluble
MKVNILMATYNGEKFLAQQIESIQKQTFKEWNLLIRDDGSSDKTCDIIRNFTAKDSRIRFINENEHHNLGVIKSFFTLVNYEVADFYFFSDQDDVWLPEKLSVSLEAAKHKASDVPLLVYTDLKVVNQELNILQDSMIRAQSHHANTTLLPELTENTVTGGTMMINHALAEKWFTPNDILMHDWFLALLAASLGEIIYLDLPTQLYRQHDNNVLGARTMDKRFKILREGPKSIFTRYWKLIHDSQKQASLIVDKYGDIMTANDLELIKCFIKIDKQPFMTRLRWLWKYGYSKNQFKHQVVFKWLIATNYYNKRLEHHHHHH	soluble
MGSDKIHHHHHHMKKYVLSLALLGSLLGASELKYQEFDGFKSPESIFVDKNYVYVSNVGEKLEPLAKDNDGFISKLDKNGKVLEYKFLTHLNAPKGMMEIGKTLYVVDIDVLRGFDLKTKKEIFNLPIKGAIFLNDIEKLDDNTLLVSDTGTGLILKVDLKTKQYDELLKLDLAKFGGPNGLYLDRKKHKLFIAGYHPDGVSGGVVMAYDLNTKELSIIKNEKESYDGIVPYKDGLLVSSWGNNLNGYIYNLDNVKSVKLELPLMKGPADIFIEGNILWIPKMVEGKIFKVELNK	not soluble
MGSDKIHHHHHHMLTTLAINNYRSLRDIRLPLGRLNLVTGANGSGKSNLYKALRLLAQTAQGGVVNALAQEGGLDSCFWAGPENLTKGMLSGDTEITPTVRQQTKRLKLGFAGDEFSYLIELGLPKPDNTTLFGLDPQIKREAIWVGNKYRPAAVLVERRGPMVKGRAQQRGQDGWQSLNQHMQHGDSIFTELSDPSRTPEVLRLRDSIRAWRFYDHFRSDSEAPARQPQLGTRTPVLHHDGRDLASAIQTIFEIGDRESFDEAVSDAFPGAHVTIGYQAGGLLSVNFHQQGLLRPLNAQELSDGTLRYLLLIAALLTPRPPELMVLNEPETSLHPDLLPALARLIAKATKVCQLWVVSHANRLINALNEFEQCQLIELDKQLGQTRIVGQDLLSTPGWNWQQKAQG	not soluble
MGSDKIHHHHHHSLSGRAQTEKPSALVKVGDYRASTDFLNLSAYYQTIRPVTVKVAYVSTYKTQHTIMQKLTLPAGLTVAGNLTTTKHGSYLVPSLQLYLARLSYPALQNSAKANYTLDPGTSAYSPQATISDTTKLRAFKRVAAPDYMPGYSHGDLYIGGAKAALSPVEPTTKSIRITPDGYVEVLKYDTKANAGLGFYQKPVSLAKIVKTRFHDPNRTLYLNHPLASVKTKAITQNGQTRYRLTLKNLHTPQHIAGDPETGTAGTFDSLYSIGGTTYYTFIGYDGVSN	not soluble
MGHHHHHHSHMKGIMVQGTASDVGKSLICTALCRIFARRGYKVTPFKSQNMSNNSYITVEGLEIGRAQGIQAEAAMEEASVYMNPILLKPRNDREAEIVCFGQAVDTVSGVKYRDGFYKRGLEAIKQALATLSQSFDMVVIEGAGSPVEVNLNDRELVNMKVAELADVPVILVADIERGGVFASLYGTLELLQPNERKRVVGIIVNKFRGDPELFSSGVQWIEQHLGVPVLGVLPHLPGVRIEGEDSLSKGQVTSVLP	not soluble
EQISISSPRKRIYHNILETIGGTPLVELHGVTEHPRIKKGTRILVKLEYFNPMSSVKDRVGFNIVYQAIKDGRLKPGMEIIESTSGNTGIALCQAGAVFGYRVNIAMPSTMSVERQMIMKAFGAELILTEGKKGMPGAIEEVNKMIKENPGKYFVANQFGNPDNTAAHHYTANEIWEDTDGEVDIVVSAVGTSGTVIGVAEKLKEKKKGIKIIAVEPEESAVLEGKAKGPHGIQGIGAGFIPDIYKKEFVDEIIPIKTQDAWKMARAVVKYDGIMCGMSSGAAILAGLKEAEKPENEGKTIVIIVPSCGERYLSTDLYKIKDEGTKIQILDSLLNEHH	soluble
SLHAQQKAEQLAEREEMVAELSAAKQQITQSEHWRAECELLNNEVRSLQSINTSLEADLREVTTRMEAAQQHADDKIRQMINSEQRLSEQFENLANRIFEHSNRRVDEQNRQSLNSLLSPLREQLDGFRRQVQDSFGKEAQERHTLTHEIRNLQQLNAQMAQEAINLTRALKGDNKTQGNWGEVVLTRVLEASGLREGYEYETQVSIENDARSRMQPDVIVRLPQGKDVVIDAKMTLVAYERYFNAEDDYTRESALQEHIASVRNHIRLLGRKDYQQLPGLRTLDYVLMFIPVEPAFLLALDRQPELITEALKNNIMLVSPTTLLVALRTIANLWRYEHQSRNAQQIADRASKLYDKMRLFVDDMSAIGQSLDKAQDNYRQAMKKLSSGRGNVLAQAEAFRGLGVEIKREINPDLAEQAVSQDEEYRLRSVPEQPNDEAYQRDDEYNQQSR	not soluble
MKIAVLGASGWIGGTILNEALSRGHEVVALVRDPSKLGETAAEVRSVDLAKPLTADTFAGVDVLIASVGGRADLNHSLVAKTVNNLLALLPLAKVPRLLWVGGAGSLEVAPGVTLVSSPDFPPAYKDEALAQGEALKAFRAANTAVNWTFVSPAAEIYPGESEGLYRLGGDSFFTDAKGRSRISVTDYAKAMLDEAEKGAHPNQRISVAYLEHHHHHH	soluble
MGSDKIHHHHHHMCYNNSMNERYIRFNPNIAKQKPSNKDKCPFCDKSQLGKILDVKDDMIWVENKYPTLEETYQTLVIESNDHNGDISVYSESKMRQLLDYLLSKWQLMEESGHYRSVVLYRNFGPLSGGSLRHPHSQIVGLKNVDAYETLNLDWFDGIEVCSETSQQAEISIANRPMLDFTEFTIKVSKLENAILIADSLPILCHYILNEFLGGRCKSYNLFFYKHDGGLICKIVPRFIVSPYQIGYAIHQVNLPDELEKIKEALRAKYYL	not soluble
VDMSNVVKTYDLQDGSKVHVFKDGKMGMENKFGKSMNMPEGKVMETRDGTKIIMKGNEIFRLDEALRKGHSEGG	soluble
MSLHRLASLPGGWTPAMEGVIIVEQTPAPLIFLTAADTDIQAIARVWPRLPGDFPDLRVCNLLNLQQSFSLDDYGDRVLGQAEVIVVRLLGGKSYWPYGLEVLGELTVTKPDLKLFVLPGDDRPDPSLMNQSTVPLTAVHCLWQYFAEGGTDNIRHGLMWLGDYGFGRNYRPPAPQMVPKVGIYRPEGHHHHHH	soluble
